Measured values: IntAct's records for PubMed 18320024

B1: Tetratricopeptide repeat protein 4 (Homo sapiens), O95801 (parent)
chain: MEQPGQDPTSDDVMDSFLEKFQSQPYRGGFHEDQWEKEFEKVPLFMSRAPSEIDPRENPDLACLQSIIFDEERSPEEQAKTYKDEGNDYFKEKDYKKAVISYTEGLKKKCADPDLNAVLYTNRAAAQYYLGNFRSALNDVTAARKLKPCHLKAIIRGALCHLELKHFAEAVNWCDEGLQIDAKEKKLLEMRAKADKLKRIEQRDVRKANLKEKKERNQNEALLQAIKARNIRLSEAACEDEDSASEGLGELFLDGLSTENPHGARLSLDGQGRLSWPVLFLYPEYAQSDFISAFHEDSRFIDHLMVMFGETPSWDLEQKYCPDNLEVYFEDEDRAELYRVPAKSTLLQVLQHQRYFVKALTPAFLVCVGSSPFCKNFLRGRKVYQIR
partner: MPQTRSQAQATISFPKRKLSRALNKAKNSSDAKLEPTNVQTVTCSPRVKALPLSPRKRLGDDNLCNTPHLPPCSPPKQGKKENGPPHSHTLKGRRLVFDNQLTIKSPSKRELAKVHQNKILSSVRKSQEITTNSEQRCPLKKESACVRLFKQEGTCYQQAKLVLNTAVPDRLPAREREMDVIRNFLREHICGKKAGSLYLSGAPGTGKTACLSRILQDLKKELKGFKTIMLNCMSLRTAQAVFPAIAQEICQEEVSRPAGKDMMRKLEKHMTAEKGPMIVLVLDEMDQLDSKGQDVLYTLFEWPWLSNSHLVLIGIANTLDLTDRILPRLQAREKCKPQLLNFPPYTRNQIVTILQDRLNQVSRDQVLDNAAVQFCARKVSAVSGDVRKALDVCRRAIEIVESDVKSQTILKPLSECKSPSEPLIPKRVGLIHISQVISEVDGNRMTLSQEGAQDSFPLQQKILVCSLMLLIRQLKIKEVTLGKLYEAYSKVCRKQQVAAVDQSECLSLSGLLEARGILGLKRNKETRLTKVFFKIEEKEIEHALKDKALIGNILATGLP
B2: Tetratricopeptide repeat protein 4 (Homo sapiens), O95801 (parent)
chain: B1 chain

Variants of: B1
Conditions: with cdc6_human CDC6, Q99741

Row | effect of a mutation on the interaction | Variant
1 | disrupting interaction strength | MEQPGQDPTSDDVMDSFLEKFQSQPYRGGFHEDQWEKEFEKVPLFMSRAPSEIDPRENPDLACLQSIIFDEERSPEEQAKTYKDEGNDYFKEKDYKKAVISYTEGLKKKCADPDLNAVLYTNRAAAQYYLGNFRSALNDVTAARKLKPCHLKAIIRGALCHLELKHFAEAVNWCDEGLQIDAKEKKLLEMRAKADKLKRIEQRDVRKANLKEKKERKQNEALLQAIKARNIRLSEAACEDEDSASEGLGELFLDGLSTENPHGARLSLDGQGRLSWPVLFLYPEYAQSDFISAFHEDSRFIDHLMVMFGETPSWDLEQKYCPDNLEVYFEDEDRAELYRVPAKSTLLQVLQHQRYFVKALTPAFLVCVGSSPFCKNFLRGRKVYQIR [N217K]
2 | with no effect | MEQPGQDPTSDDVMDSFLEKFQSQPYRGGFHEDQWEKEFEKVPLFMSRAPSEIDPRENPDLACLQSMIFDEERSPEEQAKTYKDEGNDYFKEKDYKKAVISYTEGLKKKCADPDLNAVLYTNRAAAQYYLGNFRSALNDVTAARKLKPCHLKAIIRGALCHLELKHFAEAVNWCDEGLQIDAKEKKLLEMRAKADKLKRIEQRDVRKANLKEKKERNQNEALLQAIKARNIRLSEAACEDEDSASEGLGELFLDGLSTENPHGARLSLDGQGRLSWPVLFLYPEYAQSDFISAFHEDSRFIDHLMVMFGETPSWDLEQKYCPDNLEVYFEDEDRAELYRVPAKSTLLQVLQHQRYFVKALTPAFLVCVGSSPFCKNFLRGRKVYQIR [I67M]

Continued, variant first:

Row | Variant | effect of a mutation on the interaction
3 | MEQPGQDPTSDDVMDSFLEKFQSQPYRGGFHEDQWEKEFEKVPLFMSRAPSEIDPRENPDLACLQSIIFDEERSPEAQAKTYKDEGNDYFKEKDYKKAVISYTEGLKKKCADPDLNAVLYTNRAAAQYYLGNFRSALNDVTAARKLKPCHLKAIIRGALCHLELKHFAEAVNWCDEGLQIDAKEKKLLEMRAKADKLKRIEQRDVRKANLKEKKERNQNEALLQAIKARNIRLSEAACEDEDSASEGLGELFLDGLSTENPHGARLSLDGQGRLSWPVLFLYPEYAQSDFISAFHEDSRFIDHLMVMFGETPSWDLEQKYCPDNLEVYFEDEDRAELYRVPAKSTLLQVLQHQRYFVKALTPAFLVCVGSSPFCKNFLRGRKVYQIR [E77A] | disrupting interaction strength
4 | MEQPGQDPTSDDVMDSFLEKFQSQPYRGGFHEDQWEKEFEKDPLFMSRAPSEIDPRENPDLACLQSIIFDEERSPEEQAKTYKDEGNDYFKEKDYKKAVISYTEGLKKKCADPDLNAVLYTNRAAAQYYLGNFRSALNDVTAARKLKPCHLKAIIRGALCHLELKHFAEAVNWCDEGLQIDAKEKKLLEMRAKADKLKRIEQRDVRKANLKEKKERNQNEALLQAIKARNIRLSEAACEDEDSASEGLGELFLDGLSTENPHGARLSLDGQGRLSWPVLFLYPEYAQSDFISAFHEDSRFIDHLMVMFGETPSWDLEQKYCPDNLEVYFEDEDRAELYRVPAKSTLLQVLQHQRYFVKALTPAFLVCVGSSPFCKNFLRGRKVYQIR [V42D] | with no effect

Variants of: B2
Conditions: with hs90b_human HSP90AB1, P08238
Sequence of hs90b_human HSP90AB1, P08238 (P08238 whole entry): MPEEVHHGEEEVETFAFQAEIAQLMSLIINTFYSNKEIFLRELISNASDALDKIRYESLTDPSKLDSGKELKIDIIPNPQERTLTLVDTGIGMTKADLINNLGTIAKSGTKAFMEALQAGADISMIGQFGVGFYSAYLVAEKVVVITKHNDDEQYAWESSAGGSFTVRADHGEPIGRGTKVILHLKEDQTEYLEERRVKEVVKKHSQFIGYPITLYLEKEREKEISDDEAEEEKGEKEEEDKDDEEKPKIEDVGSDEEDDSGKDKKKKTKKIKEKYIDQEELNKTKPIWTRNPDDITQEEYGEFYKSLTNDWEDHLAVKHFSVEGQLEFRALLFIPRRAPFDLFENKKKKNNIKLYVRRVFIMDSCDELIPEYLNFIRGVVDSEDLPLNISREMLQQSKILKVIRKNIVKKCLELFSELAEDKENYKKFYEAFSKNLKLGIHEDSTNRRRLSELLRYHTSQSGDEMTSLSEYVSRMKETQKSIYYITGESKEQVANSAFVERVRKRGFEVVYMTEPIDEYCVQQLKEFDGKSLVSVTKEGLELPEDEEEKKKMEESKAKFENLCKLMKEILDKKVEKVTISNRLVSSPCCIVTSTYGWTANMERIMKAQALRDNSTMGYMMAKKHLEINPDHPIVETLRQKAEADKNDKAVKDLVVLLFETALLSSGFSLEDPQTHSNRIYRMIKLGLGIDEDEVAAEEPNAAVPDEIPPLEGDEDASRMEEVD

Row | Variant | effect of a mutation on the interaction
5 | MEQPGQDPTSDDVMDSFLEKFQSQPYRGGFHEDQWEKEFEKVPLFMSRAPSEIDPRENPDLACLQSIIFDEERSPEEQAKTYKDEGNDYFKEKDYKKAVISYTEGLKKKCADPDLNAVLYTNRAAAQYYLGNFRSALNDVTAARKLKPCHLEAIIRGALCHLELKHFAEAVNWCDEGLQIDAKEKKLLEMRAKADKLKRIEQRDVRKANLKEKKERNQNEALLQAIKARNIRLSEAACEDEDSASEGLGELFLDGLSTENPHGARLSLDGQGRLSWPVLFLYPEYAQSDFISAFHEDSRFIDHLMVMFGETPSWDLEQKYCPDNLEVYFEDEDRAELYRVPAKSTLLQVLQHQRYFVKALTPAFLVCVGSSPFCKNFLRGRKVYQIR [K152E] | disrupting interaction strength
6 | MEQPGQDPTSDDVMDSFLEKFQSQPYRGGFHEDQWEKEFEKVPLFMSRAPSEIDPRENPDLACLQSIIFDEERSPEEQAKTYKDEGNDYFKEKDYKKAVISYTEGLKKKCADPDLNAVLYTNRAAAQYYLGNFRSALNDVTAARKLKPCHLKAIIEGALCHLELKHFAEAVNWCDEGLQIDAKEKKLLEMRAKADKLKRIEQRDVRKANLKEKKERNQNEALLQAIKARNIRLSEAACEDEDSASEGLGELFLDGLSTENPHGARLSLDGQGRLSWPVLFLYPEYAQSDFISAFHEDSRFIDHLMVMFGETPSWDLEQKYCPDNLEVYFEDEDRAELYRVPAKSTLLQVLQHQRYFVKALTPAFLVCVGSSPFCKNFLRGRKVYQIR [R156E] | disrupting interaction strength

Variants of: B2
Conditions: with hs90b_human HSP90AB1, P08238
Remark: another data set of the same source

Row | Variant | effect of a mutation on the interaction
7 | MEQPGQDPTSDDVMDSFLEKFQSQPYRGGFHEDQWEKEFEKVPLFMSRAPSEIDPRENPDLACLQSMIFDEERSPEEQAKTYKDEGNDYFKEKDYKKAVISYTEGLKKKCADPDLNAVLYTNRAAAQYYLGNFRSALNDVTAARKLKPCHLKAIIRGALCHLELKHFAEAVNWCDEGLQIDAKEKKLLEMRAKADKLKRIEQRDVRKANLKEKKERNQNEALLQAIKARNIRLSEAACEDEDSASEGLGELFLDGLSTENPHGARLSLDGQGRLSWPVLFLYPEYAQSDFISAFHEDSRFIDHLMVMFGETPSWDLEQKYCPDNLEVYFEDEDRAELYRVPAKSTLLQVLQHQRYFVKALTPAFLVCVGSSPFCKNFLRGRKVYQIR [I67M] | with no effect

Variants of: B2
Conditions: with hsp7c_human HSPA8, P11142
Sequence of hsp7c_human HSPA8, P11142 (P11142 whole entry, looked up): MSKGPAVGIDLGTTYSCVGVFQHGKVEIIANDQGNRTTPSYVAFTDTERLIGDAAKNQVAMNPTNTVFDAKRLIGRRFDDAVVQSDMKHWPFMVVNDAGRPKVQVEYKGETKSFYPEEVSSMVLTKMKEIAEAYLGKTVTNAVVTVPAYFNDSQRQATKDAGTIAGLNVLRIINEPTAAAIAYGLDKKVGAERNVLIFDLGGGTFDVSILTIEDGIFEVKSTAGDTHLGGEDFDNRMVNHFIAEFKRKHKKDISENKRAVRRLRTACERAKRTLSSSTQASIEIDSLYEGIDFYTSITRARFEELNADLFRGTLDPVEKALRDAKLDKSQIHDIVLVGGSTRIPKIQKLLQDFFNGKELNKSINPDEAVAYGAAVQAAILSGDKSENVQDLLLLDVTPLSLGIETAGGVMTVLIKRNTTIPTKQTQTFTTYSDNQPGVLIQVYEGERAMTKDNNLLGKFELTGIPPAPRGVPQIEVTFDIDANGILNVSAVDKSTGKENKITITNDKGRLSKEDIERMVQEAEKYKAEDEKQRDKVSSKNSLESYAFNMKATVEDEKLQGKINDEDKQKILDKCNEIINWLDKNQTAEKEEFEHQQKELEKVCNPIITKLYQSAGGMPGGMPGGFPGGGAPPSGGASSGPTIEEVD

Row | Variant | effect of a mutation on the interaction
8 | MEQPGQDPTSDDVMDSFLEKFQSQPYRGGFHEDQWEKEFEKVPLFMSRAPSEIDPRENPDLACLQSMIFDEERSPEEQAKTYKDEGNDYFKEKDYKKAVISYTEGLKKKCADPDLNAVLYTNRAAAQYYLGNFRSALNDVTAARKLKPCHLKAIIRGALCHLELKHFAEAVNWCDEGLQIDAKEKKLLEMRAKADKLKRIEQRDVRKANLKEKKERNQNEALLQAIKARNIRLSEAACEDEDSASEGLGELFLDGLSTENPHGARLSLDGQGRLSWPVLFLYPEYAQSDFISAFHEDSRFIDHLMVMFGETPSWDLEQKYCPDNLEVYFEDEDRAELYRVPAKSTLLQVLQHQRYFVKALTPAFLVCVGSSPFCKNFLRGRKVYQIR [I67M] | decreasing interaction strength
